Data from patent publication US20240075137A1 (COMPUGEN, published 2024).

How the values were obtained:
[1] = target: T1, human PVRIG on cells (human, UniProt Q6DKI7 1-326); test: FACS on Jurkat cells pre-incubated with CHA.7.518.1 (unconjugated)
T1 construct: whole, on cells; over-expressed on HEK cells or endogenous on Jurkat and CD8 T cells; also called hPVRIG; HEK hPVRIG cells
T1 sequence (looked up): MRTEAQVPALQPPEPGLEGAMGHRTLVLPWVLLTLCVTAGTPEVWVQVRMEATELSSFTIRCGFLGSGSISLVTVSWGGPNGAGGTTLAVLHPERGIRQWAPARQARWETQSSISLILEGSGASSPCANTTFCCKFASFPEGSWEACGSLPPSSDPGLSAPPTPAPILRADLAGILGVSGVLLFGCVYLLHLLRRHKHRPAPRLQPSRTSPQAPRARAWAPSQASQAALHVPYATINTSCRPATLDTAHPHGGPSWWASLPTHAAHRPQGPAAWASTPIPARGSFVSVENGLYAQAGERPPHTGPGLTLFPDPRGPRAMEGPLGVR
Text: (§1) Data was acquired using a FACS Canto II and analysed using FlowJo, Excel, and Prism.

[2] = target: T1, human PVRIG on cells; test: FACS on Jurkat cells pre-incubated with Isotype (unconjugated)
Text: as §1

[3] = target: T1, human PVRIG on cells; test: FACS KD, cell type 'Jurkat' (table beside the curve, column 'FACS KD (nM)')
[4] = target: T2, cynomolgus PVRIG on cells (cynomolgus, UniProt A0A2K5WVV8 41-322); test: FACS KD, cell type 'HEK293 cPVRIG' (table beside the curve, column 'FACS KD (nM)')
T2 construct: whole, on cells; also called cPVRIG; expi cPVRIG cells
T2 sequence: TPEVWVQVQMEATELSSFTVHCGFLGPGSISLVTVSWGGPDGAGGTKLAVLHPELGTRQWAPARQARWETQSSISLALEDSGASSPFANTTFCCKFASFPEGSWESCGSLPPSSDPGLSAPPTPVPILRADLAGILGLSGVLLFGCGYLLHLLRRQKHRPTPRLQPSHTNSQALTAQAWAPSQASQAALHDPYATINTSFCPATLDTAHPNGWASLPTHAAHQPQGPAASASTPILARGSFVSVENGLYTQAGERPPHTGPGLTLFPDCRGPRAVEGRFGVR

[5] = target: T1, human PVRIG on cells; test: flow cytometry titration, HEK hPVRIG cells
Experimental: These cells were cultured in DMEM (Gibco)+10% fetal calf serum (Gibco)+glutamax (Gibco). For the HEK hPVRIG over-expressing cells, 0.5 ug/ml puromycin (Gibco) was also added to the media for positive selection. For FACS analysis, all cell lines were harvested in log phase growth and 50,000-100,000 cells per well were seeded in 96 well plates. […] The titration series was conducted as 3 fold serial dilutions. […] Data was acquired using a FACS Canto II (BD Biosciences), FACS LSR Fortessa X-20 (BD Biosciences), or IntelliCyt (IntelliCyt Corporation) and analyzed using FlowJo (Treestar) and Prism (Graphpad) software.

[6] = target: T1, human PVRIG on cells; test: FACS KD, cell type 'HEK293 hPVRIG' (table beside the curve, column 'FACS KD (nM)')
[7] = target: T1, human PVRIG on cells; test: FACS competition: PVRL2 mFc binding to HEK hPVRIG cells
Experimental: Cells were washed twice in PBS for acquisition using a FACS Canto II. Data was analyzed using FlowJo, Excel and Prism.

[8] = target: T2, cynomolgus PVRIG on cells; test: flow cytometry titration, expi cPVRIG cells
Experimental: These cells were cultured in DMEM+10% fetal calf serum+glutamax. expi cPVRIG transient over-expressing cells were generated by electroporating cPVRIG DNA into parental expi cells using the Neon transfection system. For FACS analysis, expi cPVRIG cells were used between 1-3 days-post transfection. Parental expi cells were harvested from log growth phase. 50,000-100,000 cells of per well of each type were seeded in 96 well plates. […] The titration series were conducted as a 3-fold dilution series. […] Data was acquired using a FACS Canto II or IntelliCyte and analyzed using FlowJo and Prism software.

[9] = target: T3, PVRIG Fc (UniProt Q6DKI7 41-171, limits assumed, biotinylated (Example 5)); test: FACS blocking assay: binding of PVRIG Fc to HEK cells that endogenously express PVRL2, with the antibody titrated
T3 construct: also called biotinylated PVRIG Fc protein; PVRIG-Fc-fusion protein
T3 sequence (looked up): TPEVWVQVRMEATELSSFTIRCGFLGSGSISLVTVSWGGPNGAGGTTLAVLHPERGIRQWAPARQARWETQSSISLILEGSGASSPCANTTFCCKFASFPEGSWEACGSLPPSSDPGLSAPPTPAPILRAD
Experimental: (§2) Cells were washed twice in PBS for acquisition using a FACS Canto II. Data was analyzed using FlowJo, Excel (Microsoft), and Prism.

[10] = target: T3, PVRIG Fc; test: FACS competition: biotinylated PVRIG Fc (33 nM) binding to HEK cells with endogenous PVRL2
Experimental: as §2

[11] = target: T1, human PVRIG on cells; test: FACS on Jurkat cells pre-incubated with CHA.7.538.1.2 (unconjugated)
Text: as §1

[12] = target: T4, human TIGIT on cells (human, UniProt Q495A1 22-141); test: FACS titration of AF647-labelled mAb on human effector memory CD8+ T cells, Donor 322
T4 construct: also called Expi293 human TIGIT over-expressing cells
T4 sequence: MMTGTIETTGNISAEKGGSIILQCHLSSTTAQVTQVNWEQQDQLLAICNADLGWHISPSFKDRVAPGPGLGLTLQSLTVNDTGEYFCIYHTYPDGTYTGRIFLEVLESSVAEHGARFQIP

[13] = target: T4, human TIGIT on cells; test: FACS blocking: Expi293 human TIGIT cells pre-incubated with mAb, then human PVR-m2aFc; lower gMFI = more blocking
[14] = target: T5, human TIGIT ECD with C-terminal polyhistidine tag (human, UniProt Q495A1 22-141); test: SPR (ProteOn), mAb captured, human TIGIT injected; BM26 as hIgG4
T5 construct: in-house or Sino Biological; also called hTIGIT-HIS; human TIGIT-HIS
T5 sequence: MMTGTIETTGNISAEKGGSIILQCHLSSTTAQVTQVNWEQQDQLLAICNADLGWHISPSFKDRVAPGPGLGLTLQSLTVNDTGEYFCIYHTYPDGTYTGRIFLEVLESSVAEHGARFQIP

[15] = target: T6, cyno TIGIT on cells (cynomolgus macaque); test: FACS titration on cyno TIGIT OE Expi293 cells, binding site concentration; ± 95% CI; 'Fit: Good'; panel of the lower row
T6 construct: whole, on cells; also called Expi293 cyno TIGIT over-expressing cells
Experimental: (§3) AF647-labeled goat anti-human F(ab′) (Jackson Immunoresearch) was added to the cells to detect binding of anti-TIGIT antibodies. The gMFI of the anti-TIGIT antibodies bound to the cyno TIGIT over-expressing Expi293 cells (black line), and the parental Expi293 cells (grey line) are shown.

[16] = target: T5, human TIGIT ECD with C-terminal …; test: KinExA equilibrium, His-tagged human TIGIT, n = 1
Experimental: (§4) KinExA equilibrium experiments were performed using a KinExA 3200 instrument (Sapidyne Instruments, Boise, ID, USA) at 22° C. Recombinant His-tagged human TIGIT was obtained from Sino Biologicals (Beijing, China) and reconstituted into 1×PBS. All antigen and antibody samples for KinExA analyses were prepared in degassed PBST buffer (PBS with 0.05% tween 20) with 100 ug/mL filtered BSA and 0.02% sodium azide. […] For each KinExA experiment, ˜20 lag of human TIGIT was diluted into 1 mL of 50 mM sodium carbonate, pH 9.2 which was added directly to 50 mg of azlactone beads (Ultralink Support, Thermo Scientific, Rockford, IL, USA) and rocked overnight at 4° C. After rocking, the beads were rinsed once with 1 M Tris buffer, pH 8.5, containing 10 mg/mL BSA and rocked for one hour at room temperature in the same buffer. Coupled beads were added to the bead reservoir in the KinExA instrument and diluted to ˜30 mL with 1×HBS-N (0.01 M Hepes, 0.15M NaCl, GE Healthcare) containing 0.02% sodium azide which was also the running buffer for the KinExA instrument. All antigen-coupled beads were used immediately after preparation.
(§5) The volume flowed through the bead pack for each equilibrated sample for all experiments ranged from 4 mL to 11 mL at a flow rate of 0.25 mL/min.

[17] = target: T7, Cyno TIGIT-His; test: SPR (ProteOn), mAb captured, cyno TIGIT monomer injected; kd of this row held constant; BM26 as hIgG4
T7 construct: also called cyno TIGIT monomer (prepared in-house); C-terminal HIS-tagged cyno TIGIT ECD recombinant protein
T7 sequence (ECD with C-terminal His tag, as listed by the source): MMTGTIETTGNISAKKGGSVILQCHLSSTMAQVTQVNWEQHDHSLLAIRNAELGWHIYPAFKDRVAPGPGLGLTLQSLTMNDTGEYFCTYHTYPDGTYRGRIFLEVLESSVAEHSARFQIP

[18] = target: T7, Cyno TIGIT-His; test: SPR (ProteOn), Cyno TIGIT-His
[19] = target: T6, cyno TIGIT on cells; test: FACS titration of AF647-labelled mAb on cyno effector memory CD8+ T cells, Cyno Donor 3; isotype gMFI subtracted
[20] = target: T4, human TIGIT on cells; test: FACS titration of AF647-labelled mAb on human effector memory CD8+ T cells, Donor 334
[21] = target: T8, Mouse TIGIT-His (mouse, UniProt P86176); test: SPR (ProteOn), mAb captured, mouse TIGIT monomer injected; BM26 as hIgG4
T8 construct: also called mouse TIGIT monomer (prepared in-house)
T8 sequence (soluble monomer with His tag, looked up): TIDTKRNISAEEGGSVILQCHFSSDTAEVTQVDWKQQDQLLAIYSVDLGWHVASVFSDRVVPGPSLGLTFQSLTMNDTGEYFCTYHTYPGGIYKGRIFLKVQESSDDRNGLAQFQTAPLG

[22] = target: T5, human TIGIT ECD with C-terminal …; test: SPR (ProteOn), Human TIGIT-His
[23] = target: T4, human TIGIT on cells; test: FACS blocking of human PVR-m2aFc binding to human TIGIT OE Expi293 cells; binding site concentration; n=2
[24] = target: T5, human TIGIT ECD with C-terminal …; test: KinExA equilibrium, His-tagged human TIGIT, n = 2
Experimental: as §4, §5

[25] = target: T4, human TIGIT on cells; test: FACS titration on human TIGIT OE Expi293 cells, binding site concentration; ± 95% CI; 'Fit: Good/Excellent'; panel of the lower row
Experimental: (§6) AF647-labeled goat anti-human F(ab′) (Jackson Immunoresearch) was added to the cells to detect binding of anti-TIGIT antibodies.

[26] = target: T4, human TIGIT on cells; test: FACS titration of AF647-labelled mAb on human effector memory CD8+ T cells, Donor 321
[27] = target: T6, cyno TIGIT on cells; test: FACS titration of AF647-labelled mAb on cyno effector memory CD8+ T cells, Cyno Donor 1; isotype gMFI subtracted
[28] = target: T6, cyno TIGIT on cells; test: FACS titration on cyno TIGIT OE Expi293 cells, binding site concentration; ± 95% CI; 'Fit: Excellent'; panel of the upper row
Experimental: as §3

[29] = target: T4, human TIGIT on cells; test: FACS blocking of human PVR-m2aFc binding to human TIGIT OE Expi293 cells; binding site concentration; n=1
[30] = target: T4, human TIGIT on cells; test: FACS titration on human TIGIT OE Expi293 cells, binding site concentration; ± 95% CI; 'Fit: Good/Excellent'; panel of the upper row
Experimental: as §6

[31] = target: T9, mPVRL2 HIS (mouse, UniProt P32507 32-351, limits assumed); test: ELISA: soluble PVRL2 HIS titrated on plates coated with mDNAM1-mFc
T9 construct: also called mPVRL2 protein; Soluble PVRL2 HIS protein
T9 sequence (looked up): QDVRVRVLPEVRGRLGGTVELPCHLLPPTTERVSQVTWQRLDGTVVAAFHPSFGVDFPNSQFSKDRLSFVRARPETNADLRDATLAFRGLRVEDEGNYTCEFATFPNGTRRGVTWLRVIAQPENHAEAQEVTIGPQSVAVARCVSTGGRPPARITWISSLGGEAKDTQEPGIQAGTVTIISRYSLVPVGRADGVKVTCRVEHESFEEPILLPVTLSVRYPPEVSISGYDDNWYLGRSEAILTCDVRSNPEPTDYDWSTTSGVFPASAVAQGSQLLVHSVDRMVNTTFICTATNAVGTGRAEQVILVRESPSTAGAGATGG

B1: CHA.7.518.1.H4(S241P) (antibody, human IgG4 S228P, kappa, V domains shown)
VH: QVQLVQSGAEVKKPGASVKVSCKASGYTFTDYNINWVRQAPGQGLEWMGYIYPYIGGSGYAQKFQGRVTMTRDTSTSTVYMELSSLRSEDTAVYYCAREDKTARNAMDYWGQGTLVTVSS
VL: DIQMTQSPSSLSASVGDRVTITCRVSENIYSNLAWYQQKPGKAPKLLIYEATNLAEGVPSRFSGSGSGTDFTLTISSLQPEDFATYYCQHFWGTPYTFGQGTKLEIKR
notes: humanized, human IgG4 with S241P; also called anti-PVRIG
B1 was tested, and the “% binding relative to maximum signal” value [1] was 14%, the “% binding relative to maximum signal” value [2] was 100% and the Kd [3] was 150 pM. It also gave a Kd [4] of 248 pM, a Kd [5] of 290 pM and a Kd [6] of 298 pM. The IC50 [7] was 1800 pM, the Kd [8] was 240 pM and the “IC50 (read off the curve)” value [9] was about 6000 pM. For the same binder, the IC50 [10] was 15000 pM and the “% binding relative to maximum signal” value [11] was 7%.

B2: BM26 hIgG4 (antibody, V domains shown)
VH: EVQLQQSGPELVKPGSSVKMSCKASGYTFSSYVMHWVKQKPGQGLEWIGYIDPYNDGAKYNEKFKGKATLTSDKSSSTAYMELSSLTSEDSAVYYCARGGPYGWYFDVWGAGTTVTVSS
VL: DIQMTQSPASLSASVGETVTITCRASEHIYSYLSWYQQKQGKSPQLLVYNAKTLAEGVPSRFSGSGSGTQFSLKINSLQPEDFGTYYCQHHFGSPLTFGAGTTLELKR
notes: benchmark anti-human TIGIT antibody, human IgG4 with S241P; also called BM26-H4; WO2016/028656A1 Clone 3106 as hIgG4
In the case of B2, the Kd [12] is reported as 1400 pM, the “gMFI of bound PVR-m2aFc at 266 pM mAb” value [13] is reported as 719 and the “gMFI of bound PVR-m2aFc at 1.3 nM mAb” value [13] is reported as 401. The “gMFI of bound PVR-m2aFc at 6.7 nM mAb” value [13] was 234, the Kd [14] was 24.1 pM and the Kd [15] was 1120 pM. It also gave a Kd [16] of 8.2 pM, a Kd [17] of 1.25 pM and a Kd [18] of 3.5 pM. For the same binder, the Kd [19] was 7500 pM, the Kd [20] was 810 pM and the binding result [21] was “no binding (tested: 92.9 nM mouse TIGIT)”. The Kd [22] was 4 pM, the IC50 [23] was 260 pM and the Kd [24] was 11.2 pM. For the same binder, the Kd [25] was 740 pM, the Kd [26] was 930 pM and the Kd [27] was 4600 pM. For the same binder, the Kd [28] was 690 pM, the IC50 [29] was 450 pM and the Kd [30] was 440 pM.

B3: DNAM1 Fc (Fc fusion, mouse (prefix m in FIG. 95D), UniProt Q8K4F0 19-254, looked up)
fusion chain: EETLWDTTVRLSETMTLECVYPLTHNLTQVEWTKNTGTKTVSIAVYNPNHNMHIESNYLHRVHFLNSTVGFRNMSLSFYNASEADIGIYSCLFHAFPNGPWEKKIKVVWSDSFEIAAPSDSYLSAEPGQDVTLTCQLPRTWPVQQVIWEKVQPHQVDILASCNLSQETRYTSKYLRQTRSNCSQGSMKSILIIPNAMAADSGLYRCRSEAITGKNKSFVIRLIITDGGTNKHFILP
notes: receptor part of an Fc fusion; also called mDNAM1-mFc
B3: binds [31].
